In patent publication US11142752B2, “Pullulanase mutant” (Jiangnan University, priority 2018, dated 2021):

Key:
[1] = test system: pullulanase of Geobacillus stearothermophilus; assay: Inhibitory effect of cyclodextrin on pullulanase enzyme activity (DNS method, pullulan substrate); format: biochemical
Description: (§1) 2. Measurement of Enzyme Activity of the Pullulanase:
(§2) A 3,5-dinitrosalicylic acid (DNS) method is adopted. The pullulanase catalyzes the hydrolysis of pullulan to produce reducing sugar under certain conditions, 3,5-dinitrosalicylic acid and the reducing sugar are reduced under thermal conditions to produce a brown-red amino complex, the color depth is directly proportional to the amount of the reducing sugar within a certain range, and the measurement can be performed at the wavelength of 540 nm so as to calculate the enzyme activity. Enzyme activity unit definition: the amount of the enzyme that catalyzes the production of the reducing sugar equivalent to 1 μmol of glucose reducing power per minute is defined as one activity unit.
(§3) 3. Measurement of the Enzyme Activity Comprises the Following Steps:
(§4) A. preheating: putting 1 mL of a 1% pullulan solution of which the pH value is 6.0 and 0.1 mL of a buffer solution of which the pH value is 6.0 in a centrifuge tube, and performing thermal insulation for 10 min on a water bath of 40° C.;
(§5) B. reaction: adding 0.1 mL (10 U) of an enzyme solution, performing shaking and mixing uniformly, performing accurate timing for 30 min, adding 1.5 mL of DNS for stopping reaction, performing treatment in a boiling water bath for 10 min, and performing instant cooling; and
(§6) C. measurement: measuring the light absorption value under the condition of 540 nm, and calculating the activity.
(§7) Reduction of the Inhibitory Effect of Enzyme Activity Characterization:
(§8) A. preheating: putting 1 mL of the 1% pullulan solution of which the pH value is 6.0 and 0.1 mL of 10 mM cyclodextrin in the centrifuge tube, and performing thermal insulation for 10 min on the water bath of 40° C.;
(§9) B. reaction: adding 0.1 mL (10 U) of the enzyme solution, performing shaking and mixing uniformly, performing accurate timing for 30 min, adding 1.5 mL of DNS for stopping reaction, performing treatment in the boiling water bath for 10 min, and performing instant cooling; and
(§10) On the basis, the phenylalanine at the position 481 of the Geobacillus stearothermophilus, the phenylalanine at the position 478 of the [Brevibacterium] halotolerans and the phenylalanine at the position 476 of the […] are mutated, obtained mutants and the mutation effects are shown in the table below. The key amino acid site is applicable to the pullulanase from different sources.

[2] = test system: pullulanase of Bacillus halotolerans; assay: as above; format: biochemical
Description: as §1, §2, §3, §4, §5, §6, §7, §8, §9, §10

Molecule	Reduction rate of specific enzyme activity in existence of α-CD ([1]; inhibitor α-CD) [%]	Reduction rate of specific enzyme activity in existence of β-CD ([1]; inhibitor β-CD) [%]	Reduction rate of specific enzyme activity in existence of γ-CD ([1]; inhibitor γ-CD) [%]	Reduction rate of specific enzyme activity in existence of α-CD ([2]; inhibitor α-CD) [%]	Reduction rate of specific enzyme activity in existence of β-CD ([2]; inhibitor β-CD) [%]	Reduction rate of specific enzyme activity in existence of γ-CD ([2]; inhibitor γ-CD) [%]
Geobacillus stearothermophilus Wild enzyme: wild pullulanase of Geobacillus stearothermophilus (KZE96788.1, SEQ ID NO: 20) (protein, bacterial) MLHISRTFAAYLDEIDQITVIVPKARCLDNMEPFVMTAPSGEDIPLVVQQKEDLGDAVKYVCRFSVPFQIGETHWIRARSGEESDVQIGAVVRTAAFDDQFFYDGKLGVEYAKEQTIFRVWAPTATAVSVKLVHPDHGDVRYVPLVRGERGVWSVAVSGDWERARYMYVACINRVWREAVDPYATAVSVNGEHGVIVDWEKTKLAKPAPPLPPCPSPTDAVIYELSIRDFTSHPDSGAVWKGKYLGLTEEHTRGPNGTVTGLSYLKELGVTHVQLMPFADFAGVDERDPQAAYNWGYNPLHLYAPEGSYATDPHDPYARIVELKQAIRALQENGLRVVMDAVYNHVYDREQSPLENLVPGYYFRYDAYGRPANGTGVGNDIASERRMARRWIVDSVVFWAKEYGINGFRFDLMGVHDIETMKSVRDALDAIDPSILVYGEGWDLPTPLAPEQKATMANAKRLPRLAYFNDRFRDAVKGSTFYLPDRGFALGDSAGREQVKTAIAGSLQAFGGLFCHPLQSINYVECHDNHTFWDKMEAANGHEPEWLRRKRQKLATAIVLLAQGIPFLHSGQEFYRTKGGDENSYRSPDAVNRLDWERKSRYEDDVRYIQGLIAIRRAHGAFRLATEVDVQRHLTFLEPIPPSVIAYWLRDVALYGLWTDIVVIHHNEETGVVIALPDDGEWHVVCDGERSGTVPLRQVRRFLDADGIGTWVLVKTGAAADVENGK	16.9	51.2	7.7	–	–	–
Bacillus halotolerans Wild enzyme: wild pullulanase of Bacillus halotolerans (WP_106020274.1, SEQ ID NO: 26) (protein, bacterial) MVCIQRSFEAYADEMNIITVLIPADQKDTFTPPFQLETDTAEIPLTVSQEWQIEGKYKYVCVAEQPVAFGKTHHVKASGGGKTDLQIGAVVRTDAFDAAFYYDGELGAVYASDYTEFKVWAPAATSAAVKLSHPEKSGYTLQMTRMENGVYAVTVAGDLHGYEYVYRICNNLEWTETVDPYAKAVTVNGEKGVVLRPDQANSAPSFTPFSAPVDAIIYEMHIRDFSIHENSGTKNKGKYAALAETDTKTKNGSSTGLSYLKELGVTHIELLPLNDYAGVDEENPLAAYNWGYNPLHFFAPEGSYSSNPHDPQTRNTEVKQMIHTLHQHGLRVILDVVYNHVYQREHSPFEKTVPGYFFRHDQFGMPSNGTGVGNDIASERRMARKFITDCVMYWLKEYDVDGFRFDLLGILDIETVLHMKEKASEVKSGILLFGEGWDLATPLPPEQKATLANASKMPGVGFFNDSFRDAVKGNTFHIAAAGFALGNGEKTETVMHGIAGSSGWKETAPLVSAPSQSINYVESHDNHTFWDKMSLALPQESESRKRSRQKLASAIILLAQGVPFIHSGQEFFRTKQGVENSYQSSDSINQLDWSRRETFKQDVDYVRRLISLRKAHPAFRLTSSADIQRCLECLALKEHLIVYRLFNLGAIDEWEEIIVIHHASPDSVTWQLPKDKAYRLLCDTDGFRADHGEIKKAVAVNGIGTVILYLARDLTSFA	–	–	–	17.2	35.9	6.7
